In paper PMC4352763:
Values belong to the substance of their own block, whether it stands above or below them.

Assays:
[1] = biological target: UCH-L5 (full-length, wild type) (human)
[2] = biological target: UCH-L5_(M148A/F149A) (human)
Ub-LysGlyTAMRA = Ub-LysGlyTAMRA (UniProt P0CG48); assay: fluorescence polarisation
[3] = biological target: RPN13 DEUBAD domain (aa 265-388) (human) (UniProt Q16186); assay: ITC

Sequence of UniProt P0CG48 (P0CG48 whole entry, looked up, the tested form may be a part): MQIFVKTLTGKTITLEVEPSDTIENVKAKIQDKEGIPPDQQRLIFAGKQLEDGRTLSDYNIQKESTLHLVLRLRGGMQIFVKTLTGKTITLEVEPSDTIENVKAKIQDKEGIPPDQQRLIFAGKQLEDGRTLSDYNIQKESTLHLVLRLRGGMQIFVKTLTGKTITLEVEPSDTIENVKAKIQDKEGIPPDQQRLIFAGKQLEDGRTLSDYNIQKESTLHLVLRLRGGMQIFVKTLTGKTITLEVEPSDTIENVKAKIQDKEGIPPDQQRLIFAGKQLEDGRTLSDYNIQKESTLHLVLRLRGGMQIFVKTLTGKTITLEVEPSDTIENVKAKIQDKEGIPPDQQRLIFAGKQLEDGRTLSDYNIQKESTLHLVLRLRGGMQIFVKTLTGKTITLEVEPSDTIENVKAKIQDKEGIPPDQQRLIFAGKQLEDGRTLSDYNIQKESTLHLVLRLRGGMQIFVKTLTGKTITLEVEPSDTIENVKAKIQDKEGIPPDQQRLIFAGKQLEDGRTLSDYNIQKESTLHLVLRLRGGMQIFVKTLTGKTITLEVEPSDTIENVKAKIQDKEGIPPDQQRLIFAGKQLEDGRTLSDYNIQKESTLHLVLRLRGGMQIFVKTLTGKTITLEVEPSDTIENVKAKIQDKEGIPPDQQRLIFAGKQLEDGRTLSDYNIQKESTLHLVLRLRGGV

activation of Ub-AMC hydrolysis by the addition of RPN13^DEU [1]: 7 fold | activation of Ub-AMC hydrolysis by the addition of RPN13^DEU [2]: 2.7 fold
Substance: RPN13 DEUBAD domain (aa 265-388) (from UniProt Q16186 265-388) (domain or fragment)

Kd (Ub-LysGlyTAMRA): 2300 nM
Substance: UCH-L5 (C88A)/RPN13DEU complex (from UniProt Q9Y5K5-3;Q16186)

Kd [3]: 6 nM
Substance: UCH-L5 (full-length, wild type) (enzyme)
